Data on 4 substances can be found in patent publication US20140072581A1.

What is called Kd is a measure of binding affinity in units of concentration. Lower therefore signals higher affinity.

Where only a bound is given, the exact number is not on record here.

For test [1], the target named is HER2 (UniProt P04626). Briefly: SPR; average of measurements with different directionality. A general note: In SPR one partner is held on a chip, and binding of the other changes the refractive index at the surface.
In test [2] the target is HER2 (UniProt P04626). Briefly: SPR; storage 7 d RT; SD 1.E-10.
Test [3] has as its target HER2 (UniProt P04626). Briefly: SPR; storage -80 (fresh protein); SD 1.E-10.
Test [4] deals with HER2 (UniProt P04626). Briefly: SPR; storage 7 d RT; SD 1.E-10; control row printed a second time.
Test [5] concerns the target HER2 (UniProt P04626). Briefly: SPR; storage -80 (fresh protein); SD 1.E-10; control row printed a second time.
Test [6] addresses CD3 on HBP-ALL (CD3+) cells (UniProt P07766). Briefly: live cell ELISA on HBP-ALL (CD3+) cells; OD450 grade at 1/60 dilution.
The target in test [7] is CD19 on RAJI (CD19+) cells (UniProt P15391). Briefly: live cell ELISA on RAJI (CD19+) cells; legend: OD450 below 0.100 at 1/60 dilution, but higher dilutions positive (higher than neg control). (In an ELISA, binding on a coated surface is turned into a signal by an enzyme label.)
Test [8] has as its target Tissue factor (TF) (UniProt P13726). Briefly: SPR; storage 7 d RT; SD 2.E-11.
Test [9] shares this target. Briefly: SPR; average of measurements with different directionality.
The target is the same in test [10]. Briefly: SPR; Fab captured on anti-hIgG chip, TF flowed over at 300 nM.
The target is the same in test [11]. Briefly: SPR; storage 7 d RT; SD 2.E-11; control row printed a second time.

“Variant 506, control antibody that binds HER2, based on the sequence of Herceptin” yielded a Kd in the test with HER2 [1] of 0.527 nM.

As for Fab 4D5 (control), variant 695, the Kd with HER2 [2] is 0.8 nM; with HER2 [3] it was 0.6 nM; in the test with HER2 [1] it was 0.837 nM; in the test with HER2 [4] it was 0.8 nM; with HER2 [5] it was 0.6 nM.

For “teplizumab-hOKT3-CD3 FSA, variant 2177 (antibody)”, the OD450 at 1/60 dilution in test [6] was > 2 od; in test [7], < 0.1 od.

As to Fab D3H44 (control), variant 696, the Kd stood at 0.08 nM with Tissue factor (TF) [8], 0.0515 nM in the test with Tissue factor (TF) [9], 0.0152 nM with Tissue factor (TF) [10] and 0.08 nM with Tissue factor (TF) [11].
